This note sets out measurements from paper doi:10.1101/2025.05.01.651538.

A word on the Kd: it is the equilibrium constant for the complex coming apart.

This assay has as its target wild-type unmodified 147bp nucleosome (nucleosome core particle, human histones). Description: EMSA. Conditions: chain shown with the change; 0-32 µM KDM5A^MutR titrated against 147bp nucleosome.

B1: KDM5A^CAT (KDM5A 1–801, minimal catalytically active construct), P29375 R210A; R217A; R219A; R220A; R232A; R264A; R265A; R266A; R271A; R280A; R282A (protein)
chain: MAGVGPGGYAAEFVPPPECPVFEPSWEEFTDPLSFIGRIRPLAEKTGICKIRPPKDWQPPFACEVKSFRFTPRVQRLNELEAMTRVRLDFLDQLAKFWELQGSTLKIPVVERKILDLYALSKIVASKGGFEMVTKEKKWSKVGSRLGYLPGKGTGSLLKSHYERILYPYELFQSGVSLMGVQMPNLDLKEKVEPEVLSTDTQTSPEPGTAMNILPKATAAVKTQSESGDVSANTELKKLQIFGAGPKVVGLAMGTKDKEDEVTAAAKVTNASDAFNMQMAQAKGTLSVNFVDLYVCMFCGRGNNEDKLLLCDGCDDSYHTFCLIPPLPDVPKGDWRCPKCVAEECSKPREAFGFEQAVREYTLQSFGEMADNFKSDYFNMPVHMVPTELVEKEFWRLVSSIEEDVIVEYGADISSKDFGSGFPVKDGRRKILPEEEEYALSGWNLNNMPVLEQSVLAHINVDISGMKVPWLYVGMCFSSFCWHIEDHWSYSINYLHWGEPKTWYGVPSHAAEQLEEVMRELAPELFESQPDLLHQLVTIMNPNVLMEHGVPVYRTNQCAGEFVVTFPRAYHSGFNQGYNFAEAVNFCTADWLPIGRQCVNHYRRLRRHCVFSHEELIFKMAADPECLDVGLAAMVCKELTLMTEEETRLRESVVQMGVLMSEEEVFELVPDDERQCSACRTTCFLSALTCSCNPERLVCLYHPTDLCPCPMQKKCLRYRYPLEDLPSLLYGVKVRAQSYDTWVSRVTEALSANFNHKKDLIELRVMLEDAEDRKYPENDLFRKLRDAVKEAETCASVAQLL
B1: the equilibrium dissociation constant (Kd) came out at 14 µM.
